Assay results: the supplement of paper PMC10724198
± gives the standard deviation of the averaged measurements.

What was measured:
Saccharomyces cerevisiae [1] = assay: protein stability index of tFT-peptide fusion (C-terminal peptide) (PSI (0-1 scale)); higher = more stable (slower turnover); details: genetic background: wild type; temperature: 30 C
Saccharomyces cerevisiae [2] = assay: as above
Procedure: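 MPS profiling in S. cerevisiae of the tFT-X12 degron library: putative degron peptides plus stable controls, 12 aa, fused to the C-terminus of a sfGFP-mCherry timer. Cells are FACS-sorted into 8 mCherry/sfGFP bins and deep-sequenced. PSI runs from 0 (unstable) to 1 (stable). Backgrounds are wild type, das1Δ and doa10Δ at 30 °C, and wild type, das1Δ, cdc34-1 and cdc53-1 at 37 °C; 2-3 technical replicates each.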

[3] = genetic background: cdc34-1, temperature: 37 C
[4] = genetic background: cdc53-1, temperature: 37 C
[5] = genetic background: das1 deletion, temperature: 30 C
[6] = genetic background: das1 deletion, temperature: 37 C
[7] = genetic background: doa10 deletion, temperature: 30 C
[8] = genetic background: wild type, temperature: 30 C
[9] = genetic background: wild type, temperature: 37 C
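Note: PSI is a weighted mean of sequencing reads over stability bins, variants kept only with over 10 reads, mCherry proximal and sfGFP distal, peptide attached via GGGS linker.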

Sequence	protein stability index (Saccharomyces cerevisiae [1])	protein stability index (Saccharomyces cerevisiae [2]; [3])	protein stability index (Saccharomyces cerevisiae [2]; [4])	protein stability index (Saccharomyces cerevisiae [2]; [5])	protein stability index (Saccharomyces cerevisiae [2]; [6])	protein stability index (Saccharomyces cerevisiae [2]; [7])	protein stability index (Saccharomyces cerevisiae [2]; [8])	protein stability index (Saccharomyces cerevisiae [2]; [9])
RVVNRWGVCFLG	0.231 ± 0.0097	0.6 ± 0.0065	0.7178 ± 0.0067	0.639 ± 0.014	0.733 ± 0.021	0.124 ± 0.014	0.131 ± 0.0093	0.199 ± 0.015
RVWTTVFIIRAT	0.333 ± 0.062	0.595 ± 0.032	0.609 ± 0.055	0.493 ± 0.03	0.6146 ± 0.0043	0.216 ± 0.023	0.229 ± 0.024	0.424 ± 0.023
RYLHFASLLFAS	0.364 ± 0.014	0.658 ± 0.019	0.709 ± 0.0084	0.585 ± 0.012	0.729 ± 0.0093	0.179 ± 0.006	0.226 ± 0.035	0.52 ± 0.016
SDVLVVWVFFCR	0.405 ± 0.043	0.292 ± 0.0075	0.4196 ± 0.0033	0.26 ± 0.032	0.466 ± 0.013	0.216 ± 0.029	0.263 ± 0.037	0.435 ± 0.0063
SELLVHVVFWLA	0.247 ± 0.025	0.268 ± 0.013	0.438 ± 0.038	0.289 ± 0.03	0.463 ± 0.012	0.1383 ± 0.00086	0.176 ± 0.019	0.303 ± 0.011
SFAVSSDYLFII	0.401 ± 0.019	0.69 ± 0.099	0.788 ± 0.028	0.689 ± 0.034	0.808 ± 0.032	0.316 ± 0.037	0.361 ± 0.023	0.582 ± 0.01
SFCSFVFVTFVL	0.455 ± 0.033	0.4 ± 0.031	0.4842 ± 0.0023	0.321 ± 0.044	0.508 ± 0.022	0.317 ± 0.016	0.312 ± 0.02	0.52 ± 0.058
SFFCFFLSFFYL	0.502 ± 0.015	0.571 ± 0.027	0.53 ± 0.0091	0.471 ± 0.011	0.562 ± 0.018	0.475 ± 0.025	0.445 ± 0.013	0.539 ± 0.02
SFFSQAIPILAA	0.225 ± 0.072	0.0333 ± 0.0079	0.039 ± 0.0039	0.152 ± 0.027	0.115 ± 0.015	0.129 ± 0.0039	0.15 ± 0.021	0.0837 ± 0.023
SFLCILIFPFFP	0.469 ± 0.034	0.497 ± 0.051	0.6 ± 0.015	0.411 ± 0.02	0.6 ± 0.015	0.391 ± 0.011	0.408 ± 0.028	0.5623 ± 0.0044
SFSFRPCLLLFF	0.336 ± 0.099	0.32771 ± 1.1e-05	0.355 ± 0.0074	0.357 ± 0.036	0.51 ± 0.0096	0.38211 ± 0.00035	0.283 ± 0.033	0.417 ± 0.021
SFVFLVRRWLFV	0.213 ± 0.025	0.354 ± 0.071	0.582 ± 0.02	0.563 ± 0.011	0.622 ± 0.023	0.136 ± 0.0077	0.133 ± 0.017	0.159 ± 0.011
SFYVCVPVLWLV	0.201 ± 0.0038	0.248 ± 0.024	0.29 ± 0.036	0.27 ± 0.029	0.407 ± 0.0054	0.136 ± 0.0076	0.118 ± 0.015	0.146 ± 0.028
SGRAWRLRMHVI	0.406 ± 0.17	0.663 ± 0.02	0.749 ± 0.011	0.661 ± 0.037	0.757 ± 0.018	0.263 ± 0.0029	0.269 ± 0.012	0.459 ± 0.041
SGRFRAFVLRSM	0.476 ± 0.0099	0.692 ± 0.012	0.746 ± 0.01	0.646 ± 0.029	0.7 ± 0.036	0.272 ± 0.019	0.298 ± 0.035	0.56 ± 0.032
SGRFRFVLLGLV	0.203 ± 0.021	0.558 ± 0.032	0.601 ± 0.008	0.455 ± 0.03	0.632 ± 0.00071	0.122 ± 0.023	0.156 ± 0.023	0.253 ± 0.0054
SGVVWFYIFCLS	0.361 ± 0.011	0.4729 ± 0.00067	0.535 ± 0.0018	0.322 ± 0.038	0.57 ± 0.015	0.254 ± 0.014	0.279 ± 0.043	0.494 ± 0.023
SINKLLILIKSI	0.13 ± 0.028	0.429 ± 0.026	0.618 ± 0.028	0.525 ± 0.03	0.629 ± 0.018	0.0798 ± 0.019	0.0738 ± 0.0087	0.112 ± 0.069
SIWVGSRFRWVV	0.35 ± 0.062	0.642 ± 0.0088	0.7361 ± 0.0011	0.665 ± 0.034	0.7748 ± 0.0015	0.134 ± 0.017	0.134 ± 0.021	0.344 ± 0.052
SLCELRCLLRVG	0.473 ± 0.021	0.573 ± 0.027	0.636 ± 0.022	0.522 ± 0.017	0.631 ± 0.0023	0.471 ± 0.018	0.481 ± 0.018	0.606 ± 0.013

Sequence	protein stability index (Saccharomyces cerevisiae [1])	protein stability index (Saccharomyces cerevisiae [2]; [3])	protein stability index (Saccharomyces cerevisiae [2]; [4])	protein stability index (Saccharomyces cerevisiae [2]; [5])	protein stability index (Saccharomyces cerevisiae [2]; [6])	protein stability index (Saccharomyces cerevisiae [2]; [7])	protein stability index (Saccharomyces cerevisiae [2]; [8])	protein stability index (Saccharomyces cerevisiae [2]; [9])
SLCSSVQVWSVV	0.693 ± 0.027	0.7 ± 0.049	0.763 ± 0.024	0.612 ± 0.013	0.732 ± 0.011	0.5868 ± 0.0032	0.634 ± 0.037	0.716 ± 0.011
SLLFPLPRPLLD	0.731 ± 0.016	0.7 ± 0.013	0.754 ± 0.018	0.677 ± 0.015	0.719 ± 0.016	0.686 ± 0.014	0.672 ± 0.024	0.7183 ± 0.005
SLRSRSLRCRLS	0.38 ± 0.005	0.619 ± 0.056	0.755 ± 0.024	0.723 ± 0.0081	0.749 ± 0.031	0.288 ± 0.0071	0.297 ± 0.0095	0.489 ± 0.031
SPCLPRGVLFLA	0.367 ± 0.0063	0.603 ± 0.055	0.7253 ± 0.004	0.667 ± 0.031	0.716 ± 0.005	0.2729 ± 0.0022	0.297 ± 0.022	0.437 ± 0.0099
SPCLSWTLVLVL	0.302 ± 0.037	0.275 ± 0.013	0.324 ± 0.0061	0.215 ± 0.026	0.407 ± 0.0077	0.195 ± 0.0034	0.203 ± 0.016	0.345 ± 0.0051
SRLMLPLSPLVC	0.379 ± 0.045	0.41 ± 0.011	0.455 ± 0.0065	0.301 ± 0.045	0.5021 ± 0.0044	0.2762 ± 0.0016	0.313 ± 0.016	0.465 ± 0.0065
SRPLYVMICTRV	0.386 ± 0.0086	0.4376 ± 0.00075	0.522 ± 0.035	0.327 ± 0.024	0.558 ± 0.018	0.246 ± 0.0034	0.287 ± 0.018	0.503 ± 0.022
SRSYNSPSLYVC	0.147 ± 0.009	0.498 ± 0.061	0.6496 ± 0.0057	0.605 ± 0.029	0.712 ± 0.0089	0.0903 ± 0.0041	0.102 ± 0.016	0.109 ± 0.0097
SRVCVLTGISCA	0.473 ± 0.018	0.568 ± 0.011	0.606 ± 0.016	0.416 ± 0.029	0.6023 ± 0.0038	0.387 ± 0.013	0.421 ± 0.011	0.572 ± 0.013
SSLAKFQLISTY	0.394 ± 0.017	0.429 ± 0.0045	0.464 ± 0.011	0.316 ± 0.04	0.508 ± 0.049	0.267 ± 0.003	0.305 ± 0.016	0.46 ± 0.0088
SVFSFCLCVGVV	0.294 ± 0.066	0.285 ± 0.0083	0.363 ± 0.076	0.266 ± 0.028	0.402 ± 0.011	0.213 ± 0.014	0.253 ± 0.033	0.358 ± 0.0064
SVFWCFHVLFWS	0.39 ± 0.0011	0.425 ± 0.039	0.4971 ± 0.0027	0.395 ± 0.025	0.5448 ± 0.0013	0.327 ± 0.011	0.345 ± 0.022	0.4926 ± 0.0049
SVLCLFSRLRSV	0.354 ± 0.069	0.625 ± 0.022	0.7308 ± 0.0022	0.638 ± 0.015	0.736 ± 0.0017	0.17 ± 0.0041	0.19 ± 0.032	0.383 ± 0.011
SVPIAFYLLFFQ	0.464 ± 0.021	0.557 ± 0.0081	0.605 ± 0.027	0.458 ± 0.021	0.648 ± 0.013	0.434 ± 0.013	0.456 ± 0.016	0.575 ± 0.016
SVSQTSILDSRL	0.71 ± 0.0074	0.7109 ± 0.0043	0.756 ± 0.022	0.668 ± 0.012	0.74121 ± 0.00058	0.667 ± 0.018	0.675 ± 0.012	0.7313 ± 0.0043
SVVRCWVLLGVA	0.276 ± 0.024	0.121 ± 0.047	0.157 ± 0.028	0.198 ± 0.013	0.303 ± 0.0057	0.135 ± 0.0021	0.164 ± 0.026	0.2377 ± 0.0011
SWELKWVYARVV	0.131 ± 0.005	0.374 ± 0.0097	0.5602 ± 0.0046	0.516 ± 0.02	0.674 ± 0.017	0.093 ± 0.0033	0.0851 ± 0.0075	0.0902 ± 0.0089
SYALGNVVGGSL	0.72 ± 0.013	0.675 ± 0.045	0.75 ± 0.015	0.637 ± 0.018	0.748 ± 0.014	0.631 ± 0.025	0.645 ± 0.0065	0.721 ± 0.022
TCPFTIHRLKVG	0.238 ± 0.077	0.63 ± 0.01	0.7483 ± 0.0035	0.617 ± 0.017	0.7458 ± 0.0033	0.118 ± 0.018	0.137 ± 0.028	0.218 ± 0.012
